Experiment [1] addresses T1, human tenascin-C rCd4-His-FBG (rat; human, UniProt P05540 207-392, limits assumed).
T1 construct: domain: domains 3 and 4; C-terminal FBG fusion; biotinylated in the ELISA and HTRF screens; also called Hu TNC; human TNC rCd4-His-FBG; not shown: 6His tag
T1 sequence (chain (part 1 of 2)): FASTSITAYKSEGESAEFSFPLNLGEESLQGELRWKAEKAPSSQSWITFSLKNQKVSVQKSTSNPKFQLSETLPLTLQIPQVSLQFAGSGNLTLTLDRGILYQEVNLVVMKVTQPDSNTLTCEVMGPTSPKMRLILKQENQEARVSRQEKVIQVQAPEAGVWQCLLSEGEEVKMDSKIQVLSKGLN
T1 sequence (chain (part 2 of 2)): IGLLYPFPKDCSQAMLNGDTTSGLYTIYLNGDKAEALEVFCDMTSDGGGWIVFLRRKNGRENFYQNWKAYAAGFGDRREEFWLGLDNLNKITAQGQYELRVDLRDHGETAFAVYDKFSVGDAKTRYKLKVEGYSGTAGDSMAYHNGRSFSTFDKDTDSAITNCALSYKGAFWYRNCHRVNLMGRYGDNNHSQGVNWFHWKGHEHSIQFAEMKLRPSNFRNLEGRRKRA
The experiment in a line: SPR off-rate screen, captured IgG4 supernatant, 25 C. A digest of the protocol: (§1)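 SPR at 25 °C: IgG4 (S241P) from culture supernatant, diluted 1:2 in 2×PBS-T, captured on anti-human Fc surface; antigen injected at a fixed 15 nM (human and mouse TNC rCd4-His-FBG) or 100 nM (human TNR rCd4-His-FBG), 30 μl/min. Association 1 min, dissociation 5 min; off-rates from reference-subtracted 1:1 fits.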

The target of experiment [2] is T2, mouse tenascin-C rCd4-His-FBG (rat; mouse, UniProt P05540 207-392, limits assumed).
T2 construct: domain: domains 3 and 4; C-terminal FBG fusion; biotinylated in the ELISA screen; also called Mu TNC; mouse TNC rCd4-His-FBG; not shown: 6His tag
T2 sequence (chain (part 1 of 2)): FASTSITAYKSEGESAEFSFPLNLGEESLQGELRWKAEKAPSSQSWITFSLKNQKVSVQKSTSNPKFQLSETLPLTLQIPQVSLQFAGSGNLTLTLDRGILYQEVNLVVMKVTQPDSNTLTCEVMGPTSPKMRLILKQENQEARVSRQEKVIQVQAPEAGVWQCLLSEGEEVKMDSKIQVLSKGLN
T2 sequence (chain (part 2 of 2)): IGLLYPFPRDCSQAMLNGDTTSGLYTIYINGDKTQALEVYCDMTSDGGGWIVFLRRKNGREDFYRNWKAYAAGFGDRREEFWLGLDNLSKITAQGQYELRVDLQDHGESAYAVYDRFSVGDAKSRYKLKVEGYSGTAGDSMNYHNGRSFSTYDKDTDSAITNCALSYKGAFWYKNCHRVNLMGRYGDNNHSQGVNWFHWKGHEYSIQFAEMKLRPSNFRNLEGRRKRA
The description is as above. A digest of the protocol: as §1

The target in experiment [3] is T3, human tenascin-R rCd4-His-FBG (rat; human, UniProt P05540 207-392, limits assumed).
T3 construct: domain: domains 3 and 4; C-terminal FBG fusion; also called Hu TNR; human TNR rCd4-His-FBG; not shown: 6His tag
T3 sequence (chain (part 1 of 2)): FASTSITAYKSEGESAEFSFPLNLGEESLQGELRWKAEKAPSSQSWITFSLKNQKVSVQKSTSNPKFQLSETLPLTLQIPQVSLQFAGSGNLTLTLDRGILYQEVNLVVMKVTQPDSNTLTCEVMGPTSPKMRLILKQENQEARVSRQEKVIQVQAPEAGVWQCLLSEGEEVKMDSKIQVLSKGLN
T3 sequence (chain (part 2 of 2)): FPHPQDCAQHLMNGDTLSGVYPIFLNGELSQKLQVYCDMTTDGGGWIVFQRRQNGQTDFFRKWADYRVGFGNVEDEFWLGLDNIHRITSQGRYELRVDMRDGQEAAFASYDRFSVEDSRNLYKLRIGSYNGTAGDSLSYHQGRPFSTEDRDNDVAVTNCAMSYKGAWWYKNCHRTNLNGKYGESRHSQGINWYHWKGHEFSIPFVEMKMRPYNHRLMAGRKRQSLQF
In words: SPR off-rate screen, captured IgG4 supernatant, 25 C; off-rate screen, IgG4 in culture supernatant, 100 nM TNR antigen, 25 C. As for the experimental part:
The 31 scFv of interest were sub-cloned into a human IgG4 expression vector for generation of antibodies as human IgG4 with a hinge-stabilising mutation (S241P; Angal et al, 1993). […] Briefly, surface plasmon resonance (SPR) experiments were performed using a BIAcore T100 instrument and followed the protocol according to the Human antibody capture kit protocol (GE, BR-1008-39). For off-rate screening, 10,000 response units (RU) of anti-human Fc IgG (GE, BR-1008-39) was immobilised on flow-cells (FC1 and FC2) of a Series 5 CM5 dextran sensor chip (BR-1005-30) using EDC/NHS cross-linking chemistry according to the amine coupling kit protocol (GE, BR-1000-50). Culture supernatants containing expressed IgG4 were diluted 1:2 with 2×PBS-T and injected into FC2 (flowrate 5 μl/min, 60 s contact time) to enable antibody capture at 25° C. […] A fixed concentration of antigen (15 nM of human and mouse TNC rCd4-His-FBG and 100 nM of human TNR rCd4-His-FBG) was injected with a flow-path via FC 1 (reference flow cell) and FC 2 (antibody capture flow cell), with a flow rate of 30 μl/min, and the association and dissociation phases measured over 1 and 5 min time periods, respectively. […] Off rates were determined by reference cell subtraction and fitting the sensogram experimental data assuming a 1:1 interaction using BIAevaluation software (GE, BR-1005-97).

From patent US20170306005A1 (NASCIENT, published 2017) come the findings set out here.

In general, koff refers to the first-order rate constant of dissociation.

B1: 165_13_C3 human IgG4 (antibody, V domains shown)
VH: QVQLVESGGGLVQPGRSLRLSCAASGFTFDDYAMHWVRQAPGKGLEWVSGISGSGGSTYYADSVKGRFTISRDNAKNSLYLQMNSLRAEDTALYYCAKSYQSDEDAFDIWGQGTMVTVSS
VL: DIQMTQSPASLPTPVGDRVTITCRASQYIQGFLNWYQQKPGKAPKLLIYDASNLETGVPSRFSGSGSGTDFTLTISSLQPEDFATYYCQQSYSTPQTFGQGTKVDIKR
notes: also called IgG4 C3; C3 IgG4 MAb
As for B1, the koff in experiment [1] is less than 1e-05 s⁻¹; in experiment [2], 3.3e-06 s⁻¹; in experiment [3], 0.012 s⁻¹.
